Literature values, collected in article PMC4309608.

Assays:
[1] = molecular target: E-cadherin (Homo sapiens) (UniProt P12830)
[2] = molecular target: TgRON2 (Toxoplasma gondii) (UniProt B6KV60)
Met (Homo sapiens) = Met (Homo sapiens) (UniProt P08581)
UniProt P08581, sequence (P08581 25-932): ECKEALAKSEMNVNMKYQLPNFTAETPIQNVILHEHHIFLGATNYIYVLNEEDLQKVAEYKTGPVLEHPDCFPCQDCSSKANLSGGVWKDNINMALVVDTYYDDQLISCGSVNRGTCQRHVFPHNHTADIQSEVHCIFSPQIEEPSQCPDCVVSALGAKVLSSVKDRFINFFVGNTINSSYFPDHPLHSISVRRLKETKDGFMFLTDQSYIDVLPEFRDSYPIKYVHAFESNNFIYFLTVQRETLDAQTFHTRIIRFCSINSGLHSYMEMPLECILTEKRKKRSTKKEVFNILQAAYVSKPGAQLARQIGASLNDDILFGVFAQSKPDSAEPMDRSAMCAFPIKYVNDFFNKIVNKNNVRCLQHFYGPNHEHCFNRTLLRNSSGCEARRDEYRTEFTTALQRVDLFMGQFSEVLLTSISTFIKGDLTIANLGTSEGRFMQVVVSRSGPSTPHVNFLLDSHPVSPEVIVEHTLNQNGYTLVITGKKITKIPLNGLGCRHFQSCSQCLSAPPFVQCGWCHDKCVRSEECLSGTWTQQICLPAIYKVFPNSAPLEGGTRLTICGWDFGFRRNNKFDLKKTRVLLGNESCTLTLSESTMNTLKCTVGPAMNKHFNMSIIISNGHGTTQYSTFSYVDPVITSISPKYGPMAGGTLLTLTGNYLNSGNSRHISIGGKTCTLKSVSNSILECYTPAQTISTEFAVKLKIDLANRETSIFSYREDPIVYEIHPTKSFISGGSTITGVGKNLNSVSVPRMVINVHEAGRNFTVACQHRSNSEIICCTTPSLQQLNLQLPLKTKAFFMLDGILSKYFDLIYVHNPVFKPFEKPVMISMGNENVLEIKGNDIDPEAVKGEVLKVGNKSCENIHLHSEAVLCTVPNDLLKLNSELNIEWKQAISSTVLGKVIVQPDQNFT

UniProt B6KV60, sequence (B6KV60 25-1277): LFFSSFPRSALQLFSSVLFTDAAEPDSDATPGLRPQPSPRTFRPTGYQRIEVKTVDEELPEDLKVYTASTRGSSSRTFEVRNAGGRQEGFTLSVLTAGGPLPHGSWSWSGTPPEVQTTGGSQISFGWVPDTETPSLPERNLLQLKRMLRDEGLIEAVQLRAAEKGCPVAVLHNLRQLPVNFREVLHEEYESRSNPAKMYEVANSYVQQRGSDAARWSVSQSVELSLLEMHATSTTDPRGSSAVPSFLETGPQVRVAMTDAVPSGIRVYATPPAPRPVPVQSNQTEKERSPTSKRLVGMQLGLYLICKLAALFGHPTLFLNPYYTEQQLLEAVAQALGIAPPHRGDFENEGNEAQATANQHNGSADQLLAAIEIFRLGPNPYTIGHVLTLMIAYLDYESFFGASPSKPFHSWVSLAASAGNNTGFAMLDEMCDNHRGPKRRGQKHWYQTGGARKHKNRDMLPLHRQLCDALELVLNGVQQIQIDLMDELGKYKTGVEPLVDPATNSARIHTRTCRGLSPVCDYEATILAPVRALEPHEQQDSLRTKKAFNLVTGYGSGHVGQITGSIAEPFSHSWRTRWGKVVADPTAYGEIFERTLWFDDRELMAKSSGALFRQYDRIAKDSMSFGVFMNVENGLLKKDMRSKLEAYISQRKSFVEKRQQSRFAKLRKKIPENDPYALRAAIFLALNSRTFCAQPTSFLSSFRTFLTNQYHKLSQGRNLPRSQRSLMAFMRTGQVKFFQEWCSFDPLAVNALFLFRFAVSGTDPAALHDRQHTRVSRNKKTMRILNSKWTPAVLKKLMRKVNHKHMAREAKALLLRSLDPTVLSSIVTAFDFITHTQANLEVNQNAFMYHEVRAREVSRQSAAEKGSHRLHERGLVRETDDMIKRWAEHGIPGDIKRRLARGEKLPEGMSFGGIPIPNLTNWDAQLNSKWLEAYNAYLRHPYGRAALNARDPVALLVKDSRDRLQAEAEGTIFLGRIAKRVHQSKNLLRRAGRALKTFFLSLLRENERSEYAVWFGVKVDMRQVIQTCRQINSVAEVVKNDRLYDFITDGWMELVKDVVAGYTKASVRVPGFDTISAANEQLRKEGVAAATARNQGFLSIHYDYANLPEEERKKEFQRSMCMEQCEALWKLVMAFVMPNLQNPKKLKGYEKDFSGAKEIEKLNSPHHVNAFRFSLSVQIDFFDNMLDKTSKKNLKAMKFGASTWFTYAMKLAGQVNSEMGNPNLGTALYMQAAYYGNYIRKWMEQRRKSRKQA
UniProt P12830, sequence (P12830 155-709): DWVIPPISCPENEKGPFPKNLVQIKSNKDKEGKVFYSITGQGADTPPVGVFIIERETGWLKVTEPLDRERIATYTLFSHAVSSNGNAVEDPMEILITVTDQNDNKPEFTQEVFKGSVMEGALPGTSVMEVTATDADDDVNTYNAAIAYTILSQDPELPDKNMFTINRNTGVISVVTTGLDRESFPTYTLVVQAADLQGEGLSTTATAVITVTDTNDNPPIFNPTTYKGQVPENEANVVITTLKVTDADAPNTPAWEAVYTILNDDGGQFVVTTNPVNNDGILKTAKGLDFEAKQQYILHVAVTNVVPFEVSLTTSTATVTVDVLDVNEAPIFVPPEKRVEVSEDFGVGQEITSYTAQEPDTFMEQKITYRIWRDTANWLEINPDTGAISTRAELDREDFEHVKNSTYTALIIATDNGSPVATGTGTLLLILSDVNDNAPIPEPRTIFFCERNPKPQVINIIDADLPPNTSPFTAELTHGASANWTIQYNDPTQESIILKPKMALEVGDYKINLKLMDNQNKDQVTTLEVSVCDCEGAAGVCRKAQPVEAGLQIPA

Substance: InlA (from UniProt P0DJM0)
- Kd [1]: 8 µM

Substance: TgAMA1 (from UniProt B6KAM0)
- Kd [2]: 0.015 µM

Substance: InlB (from UniProt P0DQD3)
- Kd (Met (Homo sapiens)): 0.025 µM
